Measured values published in patent US20210285960A1.

Assays:
[1] = target: Fab488-Fc555 dual-labeled test antibody; assay: cell-based or functional assay
[2] = target: PL555-PA488 dual-labeled test antibody; assay: cell-based or functional assay

increase in 570 nm emission signal (FRET, 470 nm excitation) [1]: 35%
increase in 570 nm emission signal (FRET, 470 nm excitation) [2]: 18%
Substance: CA125 TIPS factor (MUC16/CA125), Q8WXI7 1-14451
